For orientation: stoichiometry N means the number of molecules, sites or subunits per partner or assembly.

The target of the test is FasRLVL triple mutant (Leu106, Val163 and Leu185 to phenylalanine) (Mycobacterium tuberculosis) (UniProt O05858). The test can be described thus: SEC. (In general: SEC sorts molecules by how far they enter the pores of the column.)

As for “FasRLVL triple mutant (Leu106, Val163 and Leu185 to phenylalanine) (from UniProt O05858 1-228) (natural protein)”, the percent eluting as a monomer was under 50%, the percent eluting as the wild-type protein (dimer) was over 50% and the stoichiometry N came to 2.

Source of the values: PMC7382501.
